# Source: patent US20180057604A1 (Genentech, published 2018)
# Numbering of substitutions follows the chain as printed.
# T1: cyno TfR extracellular domain (analogous construct to human TfR ecd) (cynomolgus monkey, UniProt Q5RDH6 87-760 (Pongo abelii entry))
# T1 construct: also called cynoTfR ecd
# T1 chain: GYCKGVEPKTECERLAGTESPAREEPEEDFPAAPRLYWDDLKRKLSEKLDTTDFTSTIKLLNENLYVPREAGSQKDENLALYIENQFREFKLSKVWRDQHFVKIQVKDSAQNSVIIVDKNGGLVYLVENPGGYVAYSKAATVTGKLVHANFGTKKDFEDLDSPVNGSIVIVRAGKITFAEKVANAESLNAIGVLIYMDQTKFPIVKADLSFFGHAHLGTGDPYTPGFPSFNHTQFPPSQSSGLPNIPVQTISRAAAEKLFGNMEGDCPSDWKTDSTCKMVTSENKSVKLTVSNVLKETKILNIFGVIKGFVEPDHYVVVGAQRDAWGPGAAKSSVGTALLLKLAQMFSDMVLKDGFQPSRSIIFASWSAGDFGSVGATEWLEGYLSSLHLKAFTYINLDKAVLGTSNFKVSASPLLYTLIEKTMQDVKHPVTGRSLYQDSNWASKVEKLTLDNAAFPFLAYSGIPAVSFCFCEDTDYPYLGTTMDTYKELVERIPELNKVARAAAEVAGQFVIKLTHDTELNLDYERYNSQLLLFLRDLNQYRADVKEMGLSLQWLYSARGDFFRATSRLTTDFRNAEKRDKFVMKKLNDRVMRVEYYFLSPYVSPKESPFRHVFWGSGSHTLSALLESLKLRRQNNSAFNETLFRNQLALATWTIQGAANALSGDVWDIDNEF
# B1: 5260 (antibody, V domains shown)
# VH: QVQLVQSGAEVKKPGSSVKVSCKASGGTFSSYAISWVRQAPGQGLEWMGSIIPIFGTANYAQKFQGRVTITADESTSTAYMELSSLRSEDTAVYYCARSGGTKYGMLDVWGQGTMVTVSS
# VL: EIVMTQSPATLSVSPGERATLSCRASQSVGSNLAWYQQKPGQAPRLLIYGASTRATGIPARFSGSGSGTEFTLTISSLQSEDFAVYYCQQAVVWPPRTFGGGTKVEIK
# notes: anti-BACE1 IgG
# B2: 5883 (antibody, V domains shown)
# VH: B1 VH with S50G, F55G, T57G
# VL: B1 VL with G30S, A91L, V92I, V93L
# notes: anti-BACE1 IgG
# B3: 5571 (antibody, V domains shown)
# VH: B1 VH with S50N, M115V
# VL: B1 VL with G30S, A91L, V92I, V93L
# notes: anti-BACE1 IgG
# B4: 5572 (antibody, V domains shown)
# VH: B1 VH
# VL: B1 VL with A91L, V92Y, V93T
# notes: anti-BACE1 IgG
# B5: 5878 (antibody, V domains shown)
# VH: EVQLLESGGGLVQPGGSLRLSCAASGFTFSSYAMSWVRQAPGKGLEWVSAISGSGISTPYADSVKGRFTISRDNSKNTLYLQMNSLRAEDTAVYYCAKGAGHGSYVKGWFDPWGQGTLVTVSS
# VL: EIVLTQSPATLSLSPGERATLSCRASQSVSSYLAWYQQKPGQAPRLLIYDASNRATGIPARFSGSGSGTDFTLTISSLEPEDFAVYYCQQSVNFPFTFGGGTKVEIK
# notes: anti-BACE1 IgG
# B6: 5880 (antibody, V domains shown)
# VH: B5 VH with S30G, S35T
# VL: B5 VL
# notes: anti-BACE1 IgG
# B7: 5875 (antibody, V domains shown)
# VH: EVQLLESGGGLVQPGGSLRLSCAASGFTFSTYAMGWVRQAPGKGLEWVSATSGSGGSTYYADSVKGRFTISRDNSKNTLYLQMNSLRAEDTAVYYCAKGGSQWLYAPGSWFDPWGQGTLVTVSS
# VL: B5 VL with Q89V, S91R, V92S, F96W
# notes: anti-BACE1 IgG
# B8: 5881 (antibody, V domains shown)
# VH: B5 VH with S31K
# VL: B5 VL
# notes: anti-BACE1 IgG
# B9: 5876 (antibody, V domains shown)
# VH: B7 VH with T31S, Y32R, T58I
# VL: B5 VL with Q89V, S91R, V92S, F96W
# notes: anti-BACE1 IgG
# B10: 5644 (antibody, V domains shown)
# VH: QLQLQESGPGLVKPSETLSLTCTVSGGSISSSSYYWGWIRQPPGKGLEWIGSIYYSGSTYYNPSLKSRVTISVDTSKNQFSLKLSSVTAADTAVYYCARVGHGISYFDLWGRGTLVTVSS
# VL: EIVLTQSPATLSLSPGERATLSCRASQSVSSYLAWYQQKPGQAPRLLIYDASKRATGIPARFSGSGSGTDFTLTISSLEPEDFAVYYCQQVYTWPPRTFGGGTKVEIK
# notes: anti-BACE1 IgG
# B11: 5536 (antibody, V domains shown)
# VH: B1 VH
# VL: B1 VL with A91S, V92Y, V93L
# notes: anti-BACE1 IgG
# B12: 5747 (antibody, V domains shown)
# VH: B10 VH with S52N, V100L, I104Y
# VL: B10 VL with K53N, T93L
# notes: anti-BACE1 IgG
# B13: hu15G11.v1 (antibody, V domains shown)
# VH: EVQLVQSGAEVKKPGASVKVSCKASGYTFTSYWMHWVRQAPGQRLEWMGEINPTNGRTNYIEKFKSRVTITRDTSASTAYMELSSLRSEDTAVYYCARGTRAYHYWGQGTMVTVSS
# VL: DIQMTQSPSSLSASVGDRVTITCRASDNLYSNLAWYQQKPGKAPKLLLYDATNLADGVPSRFSGSGSGTDYTLTISSLQPEDFATYYCQHFWGTPLTFGQGTKVEIK
# notes: IgG; HC 48 M, 67 V, 69 I, 71 R, 73 T
# B14: hu7A4.v5 (antibody, V domains shown)
# VH: EVQLVQSGAEVKKPGASVKVSCKASGYTFTDYAMHWVRQAPGQGLEWMGGISTYFGRTNYNQKFKGRVTMTRDTSISTAYMELSRLRSDDTAVYYCARGLSGNYVMDYWGQGTTVTVSS
# VL: DIVMTQSPDSLAVSLGERATINCRASESVDSYGNSFMHWYQQKPGQPPKLLIYRASNLESGIPDRFSGSGSGTDFTLTISSLQAEDVAVYYCQQSNEGPPTFGQGTKLEIK
# notes: IgG
# Biological target: T2, human BACE1 (R&D Systems) (human, UniProt P56817)
# T2 construct: recombinant, commercial (R&D Systems)
# Assay: SPR (Biacore)
# T2 sequence (P56817 22-457 limits assumed): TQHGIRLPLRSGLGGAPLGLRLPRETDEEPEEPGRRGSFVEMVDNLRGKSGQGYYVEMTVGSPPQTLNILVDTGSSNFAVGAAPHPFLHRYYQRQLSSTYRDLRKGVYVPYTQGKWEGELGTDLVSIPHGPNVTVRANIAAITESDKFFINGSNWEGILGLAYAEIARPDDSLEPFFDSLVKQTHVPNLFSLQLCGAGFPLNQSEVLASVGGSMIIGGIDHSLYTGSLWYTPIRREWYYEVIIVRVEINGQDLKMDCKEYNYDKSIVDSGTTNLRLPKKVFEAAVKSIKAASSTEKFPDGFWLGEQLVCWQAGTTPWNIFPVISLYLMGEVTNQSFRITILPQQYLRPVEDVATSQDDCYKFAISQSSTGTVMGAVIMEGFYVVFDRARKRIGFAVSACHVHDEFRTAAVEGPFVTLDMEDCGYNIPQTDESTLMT
row,Kd,Binder
1,14.5 nM,B1
2,6.04 nM,B2
3,7.31 nM,B3
4,2.82 nM,B4
5,36 nM,B5
6,65.5 nM,B6
7,1.94 nM,B7
8,7.92 nM,B8
9,0.72 nM,B9
10,13.3 nM,B10

# Biological target: BACE1 (HTRF long substrate and FRET short substrate assays of Example 9D)
# Assay: cell-based or functional assay
"EC50, FRET short substrate","EC50, HTRF long substrate",Binder
36.8 nM,720 nM,B1
0.607 nM,5.93 nM,B2
0.417 nM,5.06 nM,B3
–,0.578 nM,B11
15.9 nM,1.28 nM,B4
24.3 nM,164 nM,B5
7.88 nM,171 nM,B6
1.99 nM,4.9 nM,B7
5.93 nM,33.7 nM,B8
0.703 nM,1.67 nM,B9
8.47 nM,8.75 nM,B10

# Biological target: T3, murine BACE1 ECD
# T3 construct: analyte of the Octet assay (200 nM) and enzyme of the first short substrate assay
# Assay: Octet, pH 5.0
# T3 sequence (single chain, as listed by the source limits assumed): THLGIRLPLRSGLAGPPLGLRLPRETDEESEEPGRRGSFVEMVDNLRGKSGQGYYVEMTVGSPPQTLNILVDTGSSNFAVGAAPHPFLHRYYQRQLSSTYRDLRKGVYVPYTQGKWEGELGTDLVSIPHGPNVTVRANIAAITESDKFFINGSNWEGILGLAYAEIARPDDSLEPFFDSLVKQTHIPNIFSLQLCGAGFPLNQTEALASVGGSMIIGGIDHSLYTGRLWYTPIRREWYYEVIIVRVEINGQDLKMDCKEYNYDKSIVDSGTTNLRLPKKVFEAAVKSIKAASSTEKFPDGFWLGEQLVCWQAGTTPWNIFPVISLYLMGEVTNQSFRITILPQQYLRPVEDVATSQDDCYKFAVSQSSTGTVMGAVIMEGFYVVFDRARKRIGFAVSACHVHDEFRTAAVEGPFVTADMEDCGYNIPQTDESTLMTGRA
row,Kd,Binder
1,180 nM,B1
2,11 nM,B2
3,8.4 nM,B3
4,6.8 nM,B11
5,2 nM,B4
6,14 nM,B5
7,6.1 nM,B6
8,120 nM,B7
9,15 nM,B8
10,43 nM,B9
11,11 nM,B10
12,3.1 nM,B12

# Biological target: T4, human BACE1 ECD
# T4 construct: analyte of the Octet assay (200 nM) and enzyme of the first short substrate assay; also called human BACE1 extracellular domain
# Assay: Octet, pH 5.0
# T4 sequence (single chain, as listed by the source limits assumed): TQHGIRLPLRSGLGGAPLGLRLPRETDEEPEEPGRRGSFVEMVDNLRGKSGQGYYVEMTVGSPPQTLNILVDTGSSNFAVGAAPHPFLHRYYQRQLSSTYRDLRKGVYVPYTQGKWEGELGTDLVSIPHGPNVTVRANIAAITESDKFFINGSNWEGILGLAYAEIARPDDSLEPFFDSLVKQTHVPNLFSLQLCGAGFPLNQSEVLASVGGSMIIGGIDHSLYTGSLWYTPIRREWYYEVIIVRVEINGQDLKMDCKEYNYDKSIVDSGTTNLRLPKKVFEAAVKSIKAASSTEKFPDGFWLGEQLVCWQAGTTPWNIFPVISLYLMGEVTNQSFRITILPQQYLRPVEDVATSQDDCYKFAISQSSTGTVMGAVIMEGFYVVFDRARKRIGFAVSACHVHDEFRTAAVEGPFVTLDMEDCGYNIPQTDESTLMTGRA
row,Kd,Binder
1,120 nM,B1
2,8.7 nM,B2
3,8.2 nM,B3
4,17 nM,B11
5,1.5 nM,B4
6,11 nM,B5
7,4.5 nM,B6
8,50 nM,B7
9,11 nM,B8
10,31 nM,B9
11,12 nM,B10
12,3 nM,B12

# Biological target: T3, murine BACE1 ECD
# Assay: cell-based or functional assay
row,"% inhibition of BACE1 activity, short FRET substrate",Binder
1,-35%,B1
2,-275%,B2
3,-175%,B3
4,30%,B11
5,77%,B4
6,98%,B5
7,97%,B6
8,39%,B7
9,98%,B8
10,46%,B9
11,63%,B10

# Biological target: T4, human BACE1 ECD
# Assay: cell-based or functional assay
row,"% inhibition of BACE1 activity, short FRET substrate",Binder
1,-54%,B1
2,-129%,B2
3,-89%,B3
4,32%,B11
5,75%,B4
6,99%,B5
7,99%,B6
8,51%,B7
9,97%,B8
10,58%,B9
11,65%,B10

# Biological target: T1, cyno TfR extracellular domain …
# Assay: SPR, IgG;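 further: His-tagged TfR captured via immobilized anti-His antibody on a CM5 chip, antibody injected in 3-fold dilution series by single cycle kinetics, 1:1 Langmuir or steady-state fit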
row,Kd,Binder
1,10.1 nM,B13

# Biological target: T5, human TfR extracellular domain with N-terminal His tag (human, UniProt P02786 89-760)
# T5 construct: Biotinylated in some assays; also called huTfR; HuTfR
# Assay: SPR, IgG;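 further: His-tagged TfR captured via immobilized anti-His antibody on a CM5 chip, antibody injected in 3-fold dilution series by single cycle kinetics, 1:1 Langmuir or steady-state fit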
# T5 sequence (P02786 89-760 G142S): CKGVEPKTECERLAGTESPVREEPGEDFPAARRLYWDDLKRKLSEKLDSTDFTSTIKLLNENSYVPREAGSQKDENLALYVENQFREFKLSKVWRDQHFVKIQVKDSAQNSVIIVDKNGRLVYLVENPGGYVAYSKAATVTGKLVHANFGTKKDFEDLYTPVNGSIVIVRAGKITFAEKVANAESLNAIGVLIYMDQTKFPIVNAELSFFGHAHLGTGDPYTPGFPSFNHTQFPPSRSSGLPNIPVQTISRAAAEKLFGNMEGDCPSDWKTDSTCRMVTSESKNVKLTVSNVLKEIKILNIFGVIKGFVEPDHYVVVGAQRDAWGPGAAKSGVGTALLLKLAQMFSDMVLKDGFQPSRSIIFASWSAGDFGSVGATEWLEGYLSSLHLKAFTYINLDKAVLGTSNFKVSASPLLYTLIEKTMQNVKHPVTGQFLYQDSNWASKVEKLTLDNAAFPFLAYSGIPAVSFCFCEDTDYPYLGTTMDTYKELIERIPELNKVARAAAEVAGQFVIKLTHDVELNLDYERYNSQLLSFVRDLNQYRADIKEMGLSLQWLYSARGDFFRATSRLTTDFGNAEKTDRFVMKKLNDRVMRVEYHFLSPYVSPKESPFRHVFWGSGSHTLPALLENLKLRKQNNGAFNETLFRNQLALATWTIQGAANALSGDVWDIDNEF
row,Kd,Binder
1,5.12 nM,B13
2,0.364 nM,B14

# Biological target: T3, murine BACE1 ECD
# Assay: Octet, pH 7.5;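 further: antibodies captured on anti-human capture biosensor tips, dissociation followed in PBS with BSA buffer, kinetics fitted with a one-to-one binding model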
row,Kd,Binder
1,94 nM,B1
2,6.6 nM,B2
3,5.4 nM,B3
4,22 nM,B11
5,2.5 nM,B4
6,2.7 nM,B5
7,1.2 nM,B6
8,22 nM,B7
9,2.4 nM,B8
10,9.7 nM,B9
11,17 nM,B10
12,2.2 nM,B12

# Biological target: T4, human BACE1 ECD
# Assay: Octet, pH 7.5;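 further: antibodies captured on anti-human capture biosensor tips, dissociation followed in PBS with BSA buffer, kinetics fitted with a one-to-one binding model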
row,Kd,Binder
1,94 nM,B1
2,4.6 nM,B2
3,5 nM,B3
4,15 nM,B11
5,0.86 nM,B4
6,2.5 nM,B5
7,1 nM,B6
8,32 nM,B7
9,2.6 nM,B8
10,9.4 nM,B9
11,15 nM,B10
12,3.3 nM,B12

# Biological target: BACE1 in primary mouse cortical neurons (mouse, UniProt P56818 46-501)
# Assay: cell-based or functional assay
# Sequence of BACE1 in primary mouse cortical neurons (P56818 46-501): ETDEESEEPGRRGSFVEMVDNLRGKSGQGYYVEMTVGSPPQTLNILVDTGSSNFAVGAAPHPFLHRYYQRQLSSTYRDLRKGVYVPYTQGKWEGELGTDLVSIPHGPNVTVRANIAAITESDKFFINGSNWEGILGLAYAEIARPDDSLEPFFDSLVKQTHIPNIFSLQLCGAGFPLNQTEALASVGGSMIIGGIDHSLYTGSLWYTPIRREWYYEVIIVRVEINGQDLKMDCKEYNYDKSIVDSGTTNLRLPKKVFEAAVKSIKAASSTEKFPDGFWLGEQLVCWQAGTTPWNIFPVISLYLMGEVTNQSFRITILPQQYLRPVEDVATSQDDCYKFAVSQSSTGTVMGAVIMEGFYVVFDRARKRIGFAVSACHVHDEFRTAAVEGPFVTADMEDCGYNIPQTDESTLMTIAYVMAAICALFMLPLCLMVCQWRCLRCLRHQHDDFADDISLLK
"IC50, Abeta x-40 in mouse cortical neurons",maximal % inhibition of Abeta x-40,Binder
46.7 nM,74%,B1
9.11 nM,82%,B2
7.11 nM,84%,B3
42.4 nM,84%,B11
27.1 nM,73%,B4
8.33 nM,72%,B10
25.6 nM,74%,B12
